{"source": "the supplement of paper PMC9112550", "about": "“Optimization of the antimicrobial peptide Bac7 by deep mutational scanning” (BMC Biology, 2022);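 further: peptides expressed intracellularly from a pBAD plasmid library in pooled LB shake-flask culture, induced with 0.3% L-arabinose, DNA abundance read by NGS, three biological replicates, DESeq2 with apeglm shrinkage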"}
{"system": "Escherichia coli TOP10", "test": "shrunken log2 fold change of peptide-encoding DNA abundance (4.5 h post-induction vs induction); higher = less antimicrobial activity (less host growth inhibition)", "conditions": "time post-induction: 4.5 h; library: site-saturation at positions 5, 18, 19, 20"}
{"sequence": "RRIRYRPPRLPRPRPRPKWRPRP", "shrunken log2 fold change": 0.0685}
{"sequence": "RRIRNRPPRLPRPRPRPEVIPRP", "shrunken log2 fold change": 0.00635}
{"sequence": "RRIRSRPPRLPRPRPRPPCLPRP", "shrunken log2 fold change": -0.105}
{"sequence": "RRIRARPPRLPRPRPRPHFEPRP", "shrunken log2 fold change": 0.703}
{"sequence": "RRIRQRPPRLPRPRPRPPRPPRP", "shrunken log2 fold change": 0.752}
{"sequence": "RRIRDRPPRLPRPRPRPHKMPRP", "shrunken log2 fold change": -0.293}
{"sequence": "RRIRYRPPRLPRPRPRPGSHPRP", "shrunken log2 fold change": -1.48}
{"sequence": "RRIRPRPPRLPRPRPRPGSFPRP", "shrunken log2 fold change": 0.0277}
{"sequence": "RRIRVRPPRLPRPRPRPVHCPRP", "shrunken log2 fold change": -0.0781}
{"sequence": "RRIRFRPPRLPRPRPRPTAIPRP", "shrunken log2 fold change": -0.0113}
{"sequence": "RRIRHRPPRLPRPRPRPGNRPRP", "shrunken log2 fold change": 0.013}
{"sequence": "RRIRSRPPRLPRPRPRPNSEPRP", "shrunken log2 fold change": -0.262}
{"sequence": "RRIRSRPPRLPRPRPRPTADPRP", "shrunken log2 fold change": 0.275}
{"sequence": "RRIRIRPPRLPRPRPRPYRPPRP", "shrunken log2 fold change": -0.0527}
{"sequence": "RRIRNRPPRLPRPRPRPMVDPRP", "shrunken log2 fold change": -0.131}
{"sequence": "RRIRQRPPRLPRPRPRPNHWPRP", "shrunken log2 fold change": -0.176}
{"sequence": "RRIRYRPPRLPRPRPRPNIWPRP", "shrunken log2 fold change": -0.302}
{"sequence": "RRIRNRPPRLPRPRPRPQINPRP", "shrunken log2 fold change": -0.181}
{"sequence": "RRIRPRPPRLPRPRPRPEEFPRP", "shrunken log2 fold change": -0.0108}
{"sequence": "RRIRTRPPRLPRPRPRPCPMPRP", "shrunken log2 fold change": 0.00574}
{"sequence": "RRIRVRPPRLPRPRPRPACDPRP", "shrunken log2 fold change": 0.284}
{"sequence": "RRIRHRPPRLPRPRPRPFPSPRP", "shrunken log2 fold change": 0.0517}
{"sequence": "RRIRHRPPRLPRPRPRPAFFPRP", "shrunken log2 fold change": 0.0438}
{"sequence": "RRIRQRPPRLPRPRPRPNPKPRP", "shrunken log2 fold change": -0.00731}
{"sequence": "RRIRMRPPRLPRPRPRPFPLPRP", "shrunken log2 fold change": -0.0414}
{"sequence": "RRIRHRPPRLPRPRPRPVFGPRP", "shrunken log2 fold change": 0.0859}
{"sequence": "RRIRRRPPRLPRPRPRPTHNPRP", "shrunken log2 fold change": 0.695}
